Laboratory results as given in patent publication US20060003939.

Legend:
[1] = target: 35S-methionine labeled wild type DIAP1, in vitro translated from diap1-pET14b (UniProt Q24306)
[2] = target: His-DIAP1 21-4S mutant (RING domain mutant), in vitro translated from diap1 21-4S pET14b (UniProt Q24306)
His-DIAP1 21-4S mutant (RING domain mutant), in vitro translated from diap1 21-4S pET14b, sequence (Q24306 other isoform, or with tags, fused parts or gaps mutant): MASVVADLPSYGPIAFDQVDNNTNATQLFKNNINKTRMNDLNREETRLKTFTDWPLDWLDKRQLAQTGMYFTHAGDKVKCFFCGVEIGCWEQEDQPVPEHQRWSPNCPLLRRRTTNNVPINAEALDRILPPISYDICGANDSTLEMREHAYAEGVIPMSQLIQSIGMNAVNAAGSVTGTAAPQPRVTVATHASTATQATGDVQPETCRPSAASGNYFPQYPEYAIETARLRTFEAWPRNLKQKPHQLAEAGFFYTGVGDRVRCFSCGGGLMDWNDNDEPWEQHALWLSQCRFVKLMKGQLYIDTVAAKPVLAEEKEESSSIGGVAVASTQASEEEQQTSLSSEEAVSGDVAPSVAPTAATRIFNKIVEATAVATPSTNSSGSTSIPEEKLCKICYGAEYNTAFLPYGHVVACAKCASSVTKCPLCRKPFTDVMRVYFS

35S-methionine labeled wild type DIAP1, in vitro translated from diap1-pET14b, sequence (Q24306 whole entry, the tested form may be a part): as the sequence (Q24306 other isoform, or with tags, fused parts or gaps mutant) above, with Y406C counted along it

## His-UBCD1
[1]
  in vitro ubiquitination reaction: Wild-type DIAP1 (lane 4) showed marked ubiquitination
[2]
  in vitro ubiquitination reaction: whereas the His-DIAP1^21-4S mutant (RING domain mutant) did not (lane 7), in the presence of ubcD1
